One assay concerns the target fibrinogen (UniProt P02671). In words: SPR. A general note: In SPR one partner is held on a chip, and binding of the other changes the refractive index at the surface.
A further assay concerns the target collagen. In words: cell adhesion assay.
For a further assay, the target named is T1, fibrinogen, P02671.
T1 chain 1: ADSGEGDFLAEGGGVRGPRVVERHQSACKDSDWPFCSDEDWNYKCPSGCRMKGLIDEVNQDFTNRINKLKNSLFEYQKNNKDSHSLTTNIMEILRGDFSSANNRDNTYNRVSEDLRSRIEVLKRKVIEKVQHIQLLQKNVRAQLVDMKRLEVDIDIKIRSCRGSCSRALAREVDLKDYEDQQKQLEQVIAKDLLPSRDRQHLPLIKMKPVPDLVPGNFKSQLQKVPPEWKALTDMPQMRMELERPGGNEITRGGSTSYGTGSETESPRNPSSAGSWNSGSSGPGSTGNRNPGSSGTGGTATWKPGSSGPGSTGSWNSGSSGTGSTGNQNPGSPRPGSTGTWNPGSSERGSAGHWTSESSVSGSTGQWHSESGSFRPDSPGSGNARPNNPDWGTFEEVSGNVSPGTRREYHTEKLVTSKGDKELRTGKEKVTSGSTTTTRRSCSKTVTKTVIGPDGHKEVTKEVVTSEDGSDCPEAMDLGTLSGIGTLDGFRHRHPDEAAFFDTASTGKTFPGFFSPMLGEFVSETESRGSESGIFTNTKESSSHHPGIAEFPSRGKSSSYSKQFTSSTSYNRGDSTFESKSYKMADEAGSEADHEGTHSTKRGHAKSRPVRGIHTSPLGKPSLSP
T1 chain 2: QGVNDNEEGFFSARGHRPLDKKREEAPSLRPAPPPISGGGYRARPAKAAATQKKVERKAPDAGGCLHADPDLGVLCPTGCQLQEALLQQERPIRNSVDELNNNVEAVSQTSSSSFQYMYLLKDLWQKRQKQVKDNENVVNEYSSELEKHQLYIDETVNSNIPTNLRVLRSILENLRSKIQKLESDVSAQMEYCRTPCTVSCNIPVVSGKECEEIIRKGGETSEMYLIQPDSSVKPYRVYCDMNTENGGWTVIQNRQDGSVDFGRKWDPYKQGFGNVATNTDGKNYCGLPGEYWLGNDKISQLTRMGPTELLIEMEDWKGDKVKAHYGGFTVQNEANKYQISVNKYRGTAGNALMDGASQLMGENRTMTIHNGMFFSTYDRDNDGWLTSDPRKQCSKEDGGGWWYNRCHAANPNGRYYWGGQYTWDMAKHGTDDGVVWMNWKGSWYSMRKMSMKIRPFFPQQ
T1 chain 3: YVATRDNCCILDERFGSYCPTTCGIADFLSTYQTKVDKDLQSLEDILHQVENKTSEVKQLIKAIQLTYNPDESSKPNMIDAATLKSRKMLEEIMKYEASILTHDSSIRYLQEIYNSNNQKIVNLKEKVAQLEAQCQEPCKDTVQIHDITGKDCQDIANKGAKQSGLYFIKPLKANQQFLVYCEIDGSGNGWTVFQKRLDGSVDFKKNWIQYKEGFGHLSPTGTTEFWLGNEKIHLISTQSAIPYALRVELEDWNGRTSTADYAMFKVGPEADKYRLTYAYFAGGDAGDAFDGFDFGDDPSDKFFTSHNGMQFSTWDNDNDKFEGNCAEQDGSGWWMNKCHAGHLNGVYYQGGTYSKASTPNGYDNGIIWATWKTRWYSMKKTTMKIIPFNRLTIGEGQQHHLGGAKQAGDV
Put plainly: cell adhesion assay. The following applies: remark: other sources report otherwise.

In the assay with fibrinogen, “recombinant soluble GPVI extracellular domain, monomer (GPVI-ex) (from UniProt Q9HCN6 21-267) (domain or fragment)” returned a Kd of 336 nM, a koff of 0.00394 s⁻¹ and a kon of 11700 M⁻¹ s⁻¹. Regarding “human GPVI expressed on RBL-2H3 cells (from UniProt Q9HCN6 21-339) (receptor)”, the fold increase in cell adhesion relative to mock-transfected cells with collagen was determined as 3 fold.

B1: human GPVI expressed on RBL-2H3 cells, Q9HCN6 21-339 (receptor)
chain: QSGPLPKPSLQALPSSLVPLEKPVTLRCQGPPGVDLYRLEKLSSSRYQDQAVLFIPAMKRSLAGRYRCSYQNGSLWSLPSDQLELVATGVFAKPSLSAQPGPAVSSGGDVTLQCQTRYGFDQFALYKEGDPAPYKNPERWYRASFPIITVTAAHSGTYRCYSFSSRDPYLWSAPSDPLELVVTGTSVTPSRLPTEPPSPVAEFSEATAELTVSFTNEVFTTETSRSITASPKESDSPAGPARQYYTKGNLVRICLGAVILIILAGFLAEDWHSRRKRLRHRGRAVQRPLPPLPPLPLTRKSNGGQDGGRQDVHSRGLCS
As to B1, the fold increase in cell adhesion relative to mock-transfected cells in the assay with fibrinogen, P02671 came out at 3 fold.

By Kd is commonly meant a measure of binding affinity in units of concentration. A low value points to higher affinity. As usually defined, the koff is a measure of how fast the partners let go of each other. The kon is the second-order rate constant of association.

The values above are taken from publication PMC5927996.
